According to patent publication US20260132183A1 (ACADEMISCH ZIEKENHUIS LEIDEN H O D N LUMC, published 2026):

T1: MAGE-A6 peptide on HLA-B*35:01 (human)
T1 peptide: EVDPIGHVY

T2: MAGE-A9 peptide on HLA-A*01:01 (human)
T2 peptide: YVGKEHMFY

T3: MAGE-A3 peptide on HLA-B*35:01 (human)
T3 peptide: EVDPIGHLY

T4: MAGE-A1 peptide on HLA-A*03:01 (human)
T4 peptide: SLFRAVITK

T5: MAGE-A1 peptide on HLA-A*02:01 (human)
T5 peptide: KVLEYVIKV

T6: MAGE-A1 peptide on HLA-C*07:02 (human)
T6 peptide: VRFFFPSL

T7: MAGE-A1 peptide on HLA-B*07:02 (human)
T7 peptide: RVRFFFPSL


Molecular target: T1, MAGE-A6 peptide on HLA-B*35:01
Assay: cytokine release

Row | binding result | Binder
1 | recognises | TCR CT23.2H9 (TCR, V domains shown) Valpha: KDQVFQPSTVASSEGAVVEIFCNHSVSNAYNFFWYLHFPGCAPRLLVKGSKPSQQGRYNMTYERFSSSLLILQVREADAAVYYCAVPNNYGQNFVFGPGTRLSVLP Vbeta: NAGVTQTPKFRILKIGQSMTLQCTQDMNHNYMYWYRQDPGMGLKLIYYSVGAGITDKGEVPNGYNVSRSTTEDFPLRLELAAPSQTSVYFCASSYSGQGLYEQYFGPGTRLTVT

What follows are binders tested against T8, HLA-A*03:01 with beta-2 microglobulin (human) (assay: pHLA monomer refolding).
T8 construct: also called HLA-A3

Row | binding result | Binder
2 | binds | SMLGDGHSMPK (synthetic peptide) [SMLGDGHSMPK (MAGE-A9 peptide)]
3 | binds | RIFPKIMPK (synthetic peptide) [RIFPKIMPK (SSX4 peptide)]
4 | binds | ATLPPFMCNK (synthetic peptide) [ATLPPFMCNK (SSX2 peptide)]
5 | binds | IVLGVILTK (synthetic peptide) [IVLGVILTK (MAGE-A9 peptide)]
6 | binds | SVMGVYVGK (synthetic peptide) [SVMGVYVGK (MAGE-A9 peptide)]
7 | binds | RVRFFFPSLR (synthetic peptide) [RVRFFFPSLR (MAGE-A1 peptide)]
8 | binds | RVRIAYPSLR (synthetic peptide) [RVRIAYPSLR (MAGE-A4 peptide)]
9 | binds | RCFPVIFGK (synthetic peptide) [RCFPVIFGK (MAGE-A4 peptide)]

Each binder was assayed against T9, HLA-A*02:01 with beta-2 microglobulin (human) (assay: pHLA monomer refolding).
T9 construct: also called HLA-A2

Row | binding result | Binder
10 | binds | FVYGEPREL (synthetic peptide) [FVYGEPREL (MAGE-C2 peptide)]
11 | binds | VIWEVLNAV (synthetic peptide) [VIWEVLNAV (MAGE-C2 peptide)]
12 | binds | VLGEEQEGV (synthetic peptide) [VLGEEQEGV (MAGE-A9 peptide)]
13 | binds | GVYDGREHTV (synthetic peptide) [GVYDGREHTV (MAGE-A4 peptide)]
14 | binds | ALIEVGPDHFC (synthetic peptide) [ALIEVGPDHFC (MAGE-C2 peptide)]
15 | binds | ALKDVEERV (synthetic peptide) [ALKDVEERV (MAGE-C2 peptide)]
16 | binds | KVLEYVIKV (synthetic peptide) [KVLEYVIKV (MAGE-A1 peptide)]
17 | binds | TLDEKVAEL (synthetic peptide) [TLDEKVAEL (MAGE-C2 peptide)]
18 | binds | GVYAGREHFV (synthetic peptide) [GVYAGREHFV (MAGE-C2 peptide)]
19 | binds | KIWEELSVLEV (synthetic peptide) [KIWEELSVLEV (MAGE-A3/A6 peptide)]
20 | binds | ALREEEEGV (synthetic peptide) [ALREEEEGV (MAGE-A1 peptide)]
21 | binds | KASEKIFYV (synthetic peptide) [KASEKIFYV (SSX2 peptide)]
22 | binds | KVLEFLAKL (synthetic peptide) [KVLEFLAKL (MAGE-C2 peptide)]

What follows are binders tested against T10, HLA-B*07:02 with beta-2 microglobulin (human) (assay: pHLA monomer refolding).
T10 construct: also called HLA-B7

Row | Binder | binding result
23 | RVRIAYPSL (synthetic peptide) [RVRIAYPSL (MAGE-A4 peptide)] | binds
24 | FPSLREAAL (synthetic peptide) [FPSLREAAL (MAGE-A1 peptide)] | binds
25 | YPSLREAAL (synthetic peptide) [YPSLREAAL (MAGE-A4 peptide)] | binds

Now from value to binder:

Row | binding result | Binder
26 | binds | RVRFFFPSL (synthetic peptide) [RVRFFFPSL (MAGE-A1 peptide)]
27 | binds | RPADLTRVIM (synthetic peptide) [RPADLTRVIM (MAGE-A11 peptide)]

These binders were tested against T11, HLA-C*07:02 with beta-2 microglobulin (human) (assay: pHLA monomer refolding).
T11 construct: also called HLA-C7; C702

Row | binding result | Binder
28 | binds | VRFFFPSL (synthetic peptide) [VRFFFPSL (MAGE-A1 peptide)]

Each binder was assayed against T12, HLA-A*01:01 with beta-2 microglobulin (human) (assay: pHLA monomer refolding).
T12 construct: also called HLA-A1

Row | binding result | Binder
29 | binds | YVGKEHMFY (synthetic peptide) [YVGKEHMFY (MAGE-A9 peptide)]
30 | binds | LTQDLVQEKYLEY (synthetic peptide) [LTQDLVQEKYLEY (MAGE-A1 peptide)]

Molecular target: T2, MAGE-A9 peptide on HLA-A*01:01
Assay: multimer staining

Row | binding result | Binder
31 | recognises | TCR CT43.2D8 (TCR, V domains shown) Valpha: EDKVVQSPLSLVVHEGDTVTLNCSYEVTNFRSLLWYKQEKKAPTFLFMLTSSGIEKKSGRLSSILDKKELSSILNITATQTGDSAIYLCAVEGWDDKIIFGKGTRLHILP Vbeta: DAGITQSPRHKVTETGTPVTLRCHQTENHRYMYWYRQDPGHGLRLIHYSYGVKDTDKGEVSDGYSVSRSKTEDFLLTLESATSSQTSVYFCAISEGRNEQYFGPGTRLTVT

Molecular target: T3, MAGE-A3 peptide on HLA-B*35:01
Assay: multimer staining

Row | binding result | Binder
32 | recognises | TCR CT23.2H9 (TCR, V domains shown) Valpha: KDQVFQPSTVASSEGAVVEIFCNHSVSNAYNFFWYLHFPGCAPRLLVKGSKPSQQGRYNMTYERFSSSLLILQVREADAAVYYCAVPNNYGQNFVFGPGTRLSVLP Vbeta: NAGVTQTPKFRILKIGQSMTLQCTQDMNHNYMYWYRQDPGMGLKLIYYSVGAGITDKGEVPNGYNVSRSTTEDFPLRLELAAPSQTSVYFCASSYSGQGLYEQYFGPGTRLTVT

Molecular target: T4, MAGE-A1 peptide on HLA-A*03:01
Assay: multimer staining

Row | binding result | Binder
33 | recognises | TCR CT23.3H4 (TCR, V domains shown) Valpha: RKEVEQDPGPFNVPEGATVAFNCTYSNSASQSFFWYRQDCRKEPKLLMSVYSSGNEDGRFTAQLNRASQYISLLIRDSKLSDSATYLCVVNFNYGQNFVFGPGTRLSVLP Vbeta: DTGVSQDPRHKITKRGQNVTFRCDPISEHNRLYWYRQTLGQGPEFLTYFQNEAQLEKSRLLSDRFSAERPKGSFSTLEIQRTEQGDSAMYLCASSPLGVNTEAFFGQGTRLTVV

Molecular target: T5, MAGE-A1 peptide on HLA-A*02:01
Assay: multimer staining

Row | binding result | Binder
34 | recognises | TCR CT27.4F7 (TCR, V domains shown) Valpha: GEDVEQSLFLSVREGDSSVINCTYTDSSSTYLYWYKQEPGAGLQLLTYIFSNMDMKQDQRLTVLLNKKDKHLSLRIADTQTGDSAIYFCAESIDARLMFGDGTQLVVKP Vbeta: DSGVTQTPKHLITATGQRVTLRCSPRSGDLSVYWYQQSLDQGLQFLIQYYNGEERAKGNILERFSAQQFPDLHSELNLSSLELGDSALYFCASSPGGDTQYFGPGTRLTVL

Molecular target: T6, MAGE-A1 peptide on HLA-C*07:02
Assay: multimer staining

Row | binding result | Binder
35 | recognises | TCR CT31.10C1 (TCR, V domains shown) Valpha: DQQVKQNSPSLSVQEGRISILNCDYTNSMFDYFLWYKKYPAEGPTFLISISSIKDKNEDGRFTVFLNKSAKHLSLHIVPSQPGDSAVYFCAASAQNNDMRFGAGTRLTVKP Vbeta: DAGVIQSPRHEVTEMGQEVTLRCKPISGHDYLFWYRQTMMRGLELLIYFNNNVPIDDSGMPEDRFSAKMPNASFSTLKIQPSEPRDSAVYFCASGTGWDTEAFFGQGTRLTVV

Molecular target: T7, MAGE-A1 peptide on HLA-B*07:02
Assay: multimer staining

Row | binding result | Binder
36 | recognises | TCR CT12.3G2 (TCR, V domains shown) Valpha: AQKVTQAQTEISVVEKEDVTLDCVYETRDTTYYLFWYKQPPSGELVFLIRRNSFDEQNEISGRYSWNFQKSTSSFNFTITASQVVDSAVYFCALSEAYSGAGSYQLTFGKGTKLSVIP Vbeta: EPEVTQTPSHQVTQMGQEVILRCVPISNHLYFYWYRQILGQKVEFLVSFYNNEISEKSEIFDDQFSVERPDGSNFTLKIRSTKLEDSAMYFCASSEALQPQHFGDGTRLSIL
